From PMC2172930 come the findings set out here.

The target in this experiment is p85, the regulatory subunit of PI3-kinase (mouse (endogenous in NIH3T3)) (UniProt P26450). Description: co-IP.
Sequence of UniProt P26450 (P26450 whole entry): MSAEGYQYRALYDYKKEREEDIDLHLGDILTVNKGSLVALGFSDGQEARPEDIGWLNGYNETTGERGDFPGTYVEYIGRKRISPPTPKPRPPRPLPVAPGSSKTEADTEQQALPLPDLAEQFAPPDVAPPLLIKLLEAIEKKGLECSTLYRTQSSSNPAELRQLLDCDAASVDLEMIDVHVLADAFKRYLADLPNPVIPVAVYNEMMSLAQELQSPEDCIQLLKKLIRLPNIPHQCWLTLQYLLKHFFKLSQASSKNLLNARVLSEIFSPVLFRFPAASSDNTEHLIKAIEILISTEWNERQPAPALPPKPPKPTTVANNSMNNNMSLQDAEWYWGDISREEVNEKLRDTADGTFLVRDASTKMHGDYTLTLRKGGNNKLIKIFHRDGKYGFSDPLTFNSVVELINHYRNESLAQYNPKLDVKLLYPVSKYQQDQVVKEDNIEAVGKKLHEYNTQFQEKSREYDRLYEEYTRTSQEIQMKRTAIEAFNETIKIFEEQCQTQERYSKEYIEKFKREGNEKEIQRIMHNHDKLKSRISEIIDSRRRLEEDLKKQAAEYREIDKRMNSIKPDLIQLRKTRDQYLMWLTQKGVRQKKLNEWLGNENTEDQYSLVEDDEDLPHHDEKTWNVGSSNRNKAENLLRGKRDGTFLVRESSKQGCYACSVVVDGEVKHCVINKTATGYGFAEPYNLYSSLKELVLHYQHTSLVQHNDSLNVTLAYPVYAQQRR

“androgen receptor (110-kD classical murine AR of NIH3T3 cells) (from UniProt P19091 1-899)” had an increase of AR/p85 association on 0.001 nM R1881 against unstimulated cells of 38%.
